{
  "source": "IntAct's records for PubMed 29769717",
  "molecular_target": "srrt_arath SE (UniProt Q9ZVD0)",
  "sequence (Q9ZVD0 whole entry)": "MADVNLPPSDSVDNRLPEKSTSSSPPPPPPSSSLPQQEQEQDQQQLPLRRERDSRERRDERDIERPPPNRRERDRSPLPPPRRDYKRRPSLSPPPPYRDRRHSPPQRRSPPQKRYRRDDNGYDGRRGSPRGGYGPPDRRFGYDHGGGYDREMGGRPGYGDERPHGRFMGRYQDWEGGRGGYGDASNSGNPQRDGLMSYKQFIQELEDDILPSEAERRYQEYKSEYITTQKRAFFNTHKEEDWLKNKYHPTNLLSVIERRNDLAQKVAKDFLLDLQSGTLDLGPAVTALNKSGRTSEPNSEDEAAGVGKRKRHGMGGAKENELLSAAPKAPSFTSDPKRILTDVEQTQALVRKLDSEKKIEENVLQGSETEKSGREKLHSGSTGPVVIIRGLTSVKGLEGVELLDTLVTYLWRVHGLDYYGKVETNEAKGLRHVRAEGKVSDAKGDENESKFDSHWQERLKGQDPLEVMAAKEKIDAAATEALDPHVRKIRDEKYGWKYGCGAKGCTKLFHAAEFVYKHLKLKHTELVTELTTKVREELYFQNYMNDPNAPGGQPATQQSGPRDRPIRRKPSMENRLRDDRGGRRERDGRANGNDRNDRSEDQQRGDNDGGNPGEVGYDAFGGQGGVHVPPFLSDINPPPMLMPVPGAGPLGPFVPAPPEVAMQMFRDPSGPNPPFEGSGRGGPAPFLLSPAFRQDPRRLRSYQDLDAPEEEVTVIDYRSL",
  "data": [
    {"substance": "ATP-dependent helicase BRM (Arabidopsis thaliana (Mouse-ear cress)), Q6EVK6 E1747A", "values": [
      {"measurement": "effect of a mutation on the interaction", "result": "disrupting interaction"}
    ]}
  ]
}
